Measurements: publication PMC1592478

Molecular target: human syndecan-1 with C-terminal HA tag (Syn-1-HA), stably expressed on GM00701 cells (human) (UniProt P18827)
Experiment: radioligand binding; ^125I-apoE-VLDL (2 μg/ml; in Figure 2C supplemented with 3 μg/ml apoE) on GM00701 or GM00701/Syn-1-HA cells, 4°C, 3 h, 20 mM Hepes pH 7.4, 150 mM NaCl, 2 mM CaCl2, 1% BSA; without or with unlabeled apoE-VLDL (100 μg/ml); specific binding = total minus non-competable

UniProt P18827, sequence (P18827 23-310): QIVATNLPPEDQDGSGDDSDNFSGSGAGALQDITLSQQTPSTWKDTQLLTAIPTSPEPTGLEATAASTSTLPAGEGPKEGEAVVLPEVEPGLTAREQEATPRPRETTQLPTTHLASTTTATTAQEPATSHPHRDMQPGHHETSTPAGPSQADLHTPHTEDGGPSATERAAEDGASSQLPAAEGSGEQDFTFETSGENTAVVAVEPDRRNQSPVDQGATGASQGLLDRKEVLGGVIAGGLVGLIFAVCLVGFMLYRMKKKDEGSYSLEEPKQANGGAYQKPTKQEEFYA

fold increase in specific binding over control GM00701 cells: 5 fold
Substance: apoE-VLDL (very low density lipoprotein particles with apoB100 and apoE, from rabbit plasma) (from UniProt P18287 19-311; P17165 1-144) (complex)
